We go through 1 substance from patent US6160106.

The experiment concerns the target Fas/APO-1 (human) (UniProt P25445).

“agonistic anti-APO-1 monoclonal antibody” displayed a cell death of HeLa cells (rounding up and detachment, neutral red dye uptake) of 70%.
